Assay results taken from patent US20210032347A1 (JIANGSU HANSOH PHARMACEUTICAL GROUP, published 2021).
Positions count from the first letter of the chain named. Where two headings read alike, the source gives them in different places.

How the values were obtained:
[1] = biological target: T1, Human B7-H4 with HisFlag tag (huB7-H4-his) (human, UniProt Q7Z7D3 25-258); assay: SPR Biacore T200, antibody coupled to CM5 chip, hu-B7-H4-his in flow, 1:1 model
T1 construct: also called HuB7-H4 His protein; huB7-H4-HF
T1 sequence: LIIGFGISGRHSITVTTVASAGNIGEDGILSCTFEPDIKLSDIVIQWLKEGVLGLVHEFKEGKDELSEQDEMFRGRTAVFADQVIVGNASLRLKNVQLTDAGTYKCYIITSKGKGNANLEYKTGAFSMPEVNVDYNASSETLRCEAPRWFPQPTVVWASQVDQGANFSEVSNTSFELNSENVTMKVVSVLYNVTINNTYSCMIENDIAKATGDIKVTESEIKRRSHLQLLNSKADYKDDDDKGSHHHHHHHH

[2] = biological target: T2, antigen fragment P12 (TVASAGNIGEDGILSCTFEP) (human); assay: indirect ELISA on antigen fragment
T2 peptide: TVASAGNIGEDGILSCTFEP

[3] = biological target: T3, antigen fragment TVASAGNIGEDGILSCTAEP (human); assay: indirect ELISA on antigen fragment, alanine scan
T3 construct: Alanine-scan variant of P12; the entry already carries the alanine; also called P12 alanine mutant (F to A)
T3 peptide: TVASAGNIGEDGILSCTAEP

[4] = biological target: T4, antigen fragment TVASAGNIGEDGALSCTFEP (human); assay: indirect ELISA on antigen fragment, alanine scan
T4 construct: Alanine-scan variant of P12; the entry already carries the alanine; also called P12 alanine mutant (I to A)
T4 peptide: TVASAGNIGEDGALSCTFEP

[5] = biological target: T5, antigen fragment TVASAGNIGEDGILSCAFEP (human); assay: indirect ELISA on antigen fragment, alanine scan
T5 construct: Alanine-scan variant of P12; the entry already carries the alanine; also called P12 alanine mutant (T to A)
T5 peptide: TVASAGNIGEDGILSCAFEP

[6] = biological target: T6, antigen fragment TVASAGNIGEDGILSATFEP (human); assay: indirect ELISA on antigen fragment, alanine scan
T6 construct: Alanine-scan variant of P12; the entry already carries the alanine; also called P12 alanine mutant (C to A)
T6 peptide: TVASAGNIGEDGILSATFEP

[7] = biological target: T7, antigen fragment TVASAGNIGEDGILSCTFEA (human); assay: indirect ELISA on antigen fragment, alanine scan
T7 construct: Alanine-scan variant of P12; the entry already carries the alanine; also called P12 alanine mutant (P to A)
T7 peptide: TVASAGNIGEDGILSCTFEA

[8] = biological target: T8, antigen fragment TVASAGNIGEDGIASCTFEP (human); assay: indirect ELISA on antigen fragment, alanine scan
T8 construct: Alanine-scan variant of P12; the entry already carries the alanine; also called P12 alanine mutant (L to A)
T8 peptide: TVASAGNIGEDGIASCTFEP

[9] = biological target: T9, B7-H4 expressed on cells (MX-1 cells; CHO-S cells stably expressing B7-H4) (human, UniProt Q7Z7D3 25-282); assay: flow cytometry (FACS) on MX-1 cells
T9 construct: whole, on cells; also called huB7-H4; antigens expressed by cells
T9 sequence (looked up): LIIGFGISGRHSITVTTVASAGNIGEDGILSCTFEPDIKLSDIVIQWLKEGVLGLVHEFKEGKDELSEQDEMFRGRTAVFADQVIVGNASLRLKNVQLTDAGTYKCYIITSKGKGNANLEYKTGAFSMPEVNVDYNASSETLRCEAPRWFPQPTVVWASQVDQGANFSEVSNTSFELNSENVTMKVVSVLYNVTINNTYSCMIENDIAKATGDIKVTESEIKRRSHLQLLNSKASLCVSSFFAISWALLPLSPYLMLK
Experimental: The cultured MX-1 cells were collected, cell density was adjusted with PBS pH 7.4, then plated onto a 96-well V-shaped bottom plate with 1×10⁵ cells per well, and centrifuged at 2000 rpm for 5 minutes to remove supernatant. 100 μl of the serially diluted chimeric antibody solution was added (diluted with 0.5% BSA in PBS to obtain a gradient of 3-fold dilutions, starting from 1 μM, with a total of 10 doses) into each well, mixed, and incubated for 1 hour at 4° C. with shaking; the culture was centrifuged at 2000 rpm for 5 minutes to remove the supernatant, and the cells were washed twice with PBS, and 100 μl of FITC-labeled goat anti-human secondary antibody (Abeam, cat #ab97224) diluted with 0.5% BSA in PBS was added into each well, mixed well and incubated for 30 minutes at 4° C. in a shaker. Centrifugation was performed at 2000 rpm for 5 minutes and the supernatant was removed. Cells were washed twice with PBS and resuspended in PBS. The signals were detected using flow cytometer (BECKMANCOULTER, model DxFLEX), and the concentration curve was plotted and the results were analyzed. As indicated in the table and figure, humanized antibodies 2F7, 2F8, 2G6 and 1C9 show positive bindings to MX-1 cells on which B7-H4 was highly expressed.

[10] = biological target: T10, antigen fragment TVASAGNIGEDGILSCTFAP (human); assay: indirect ELISA on antigen fragment, alanine scan
T10 construct: Alanine-scan variant of P12; the entry already carries the alanine; also called P12 alanine mutant (E to A)
T10 peptide: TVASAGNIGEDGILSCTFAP
Experimental: (§1) The method procedures were the same as described in Example 3 (1): in vitro indirect ELISA binding assay. […] To further confirm the epitope to which the antibody binds, alanine scan was performed on the antigen fragment P12, that is, each single amino acid located in P12 was mutated to alanine respectively.

[11] = biological target: T3, antigen fragment TVASAGNIGEDGILSCTAEP; assay: indirect ELISA on antigen fragment, alanine scan
Experimental: as §1

[12] = biological target: T4, antigen fragment TVASAGNIGEDGALSCTFEP; assay: indirect ELISA on antigen fragment, alanine scan
Experimental: as §1

[13] = biological target: T5, antigen fragment TVASAGNIGEDGILSCAFEP; assay: indirect ELISA on antigen fragment, alanine scan
Experimental: as §1

[14] = biological target: T6, antigen fragment TVASAGNIGEDGILSATFEP; assay: indirect ELISA on antigen fragment, alanine scan
Experimental: as §1

[15] = biological target: T8, antigen fragment TVASAGNIGEDGIASCTFEP; assay: indirect ELISA on antigen fragment, alanine scan
Experimental: as §1

[16] = biological target: T2, antigen fragment P12 …; assay: indirect ELISA on antigen fragment
Experimental: as §1

[17] = biological target: T3, antigen fragment TVASAGNIGEDGILSCTAEP; assay: indirect ELISA on antigen fragment, alanine scan
[18] = biological target: T6, antigen fragment TVASAGNIGEDGILSATFEP; assay: indirect ELISA on antigen fragment, alanine scan
[19] = biological target: T8, antigen fragment TVASAGNIGEDGIASCTFEP; assay: indirect ELISA on antigen fragment, alanine scan
[20] = biological target: T2, antigen fragment P12 …; assay: indirect ELISA on antigen fragment

B1: humanized anti-B7-H4 antibody hu2G6 (antibody, human IgG1, kappa, V domains shown)
VH: EVQLLESGGGLVQPGGSLRLSCAASGFTFSRYGMSWVRQAPGKGLEWVSGINGGGSYTYYLDTVKGRFTISRDNARNTLYLQMSSLRAEDTAVYYCVSQGSNYYFDYWGQGTLVTVSS
VL: DIRMTQSPSSLSASVGDRVTITCHASQGISSNIGWLQQKPGKAPKALIYHGTNLEDGVPSRFSGSGSGADYTLTISSLQPEDFATYYCVQYAQFPYTFGGGTKVEIKR
notes: human IgG1 / kappa; also called humanized antibody 2G6
Kd [1]: ≤ 0.0135 nM | koff [1]: ≤ 1e-05 s⁻¹ | kon [1]: 741000 M⁻¹ s⁻¹ | EC50 [2]: 793 nM | EC50 [3]: 2600 nM | EC50 [4]: 2630 nM | EC50 [5]: 2290 nM | EC50 [6]: 3.48 µM | EC50 [7]: 2370 nM | EC50 [8]: 3.16 µM | EC50 [9]: 14.3 nM

B2: humanized anti-B7-H4 antibody hu2F7 (antibody, human IgG1, kappa, V domains shown)
VH: EVQLVESGGGLVQPGGSLRLSCAASGFTFSNYYMSWVRQAPGKGLEWVAYVSSGGGSTYYSDSVKGRFTISRDNAKNTLYLQMSSLRAEDTAVYYCTRESYSQGNYFDYWGQGTTVTVSS
VL: EIVMTQSPATLSLSPGERATLSCRASQSISDYLHWYQQKPGQSPRLLIKFASQSISGIPARFSGSGSGTDFTLTISSLEPEDFAVYYCQNGHSFSLTFGQGTKLEIKR
notes: human IgG1 / kappa; also called humanized antibody 2F7
EC50 [10]: 662 nM | EC50 [11]: 986 nM | EC50 [12]: 771 nM | EC50 [13]: 463 nM | EC50 [14]: 2010 nM | EC50 [15]: 1480 nM | Kd [1]: 0.757 nM | koff [1]: 0.000249 s⁻¹ | kon [1]: 329000 M⁻¹ s⁻¹ | EC50 [9]: 7.32 nM | EC50 [16]: 118 nM

B3: humanized anti-B7-H4 antibody hu2F8 (antibody, human IgG1, kappa, V domains shown)
VH: EVQLVQSGAEVKKPGASVKVSCKASGYTFTSSWMNWVRQAPGQRLEWMGGIYPNRGNIEYNEKFKGRVTLTVDTSASTAYMELSSLRSEDTAVYYCARDSRFSYWGQGTLVTVSS
VL: DIQMTQSPSSLSASVGDRVTITCKASQDVRTAVAWYQQKPGKAPKLLISSTSYRYTGVPSRFSGSGSGTDFTFTISSLQPEDIATYYCQQHYSTPLTFGGGTKVEIKR
notes: human IgG1 / kappa; also called humanized antibody 2F8
Kd [1]: 0.25 nM | koff [1]: 0.000112 s⁻¹ | kon [1]: 447000 M⁻¹ s⁻¹ | EC50 [9]: 7.26 nM

B4: humanized anti-B7-H4 antibody hu1C9 (antibody, human IgG1, kappa, V domains shown)
VH: B3 VH with Y27D, S31T, S32Y, P53L, N57S, I58S
VL: B3 VL with R30S, T51A, S93N
notes: human IgG1 / kappa; also called humanized antibody 1C9
Kd [1]: ≤ 0.0298 nM | koff [1]: ≤ 1e-05 s⁻¹ | kon [1]: 335000 M⁻¹ s⁻¹ | EC50 [17]: 488 nM | EC50 [18]: 292 nM | EC50 [19]: 467 nM | EC50 [20]: 272 nM | EC50 [9]: 7.25 nM
